Results as given in patent US11857601.

Key:
hIL2Rα [1] = experiment: literature reference; Charych, PLOS ONE 2017
hIL2Rβ [2] = experiment: literature reference; Charych, PLOS ONE 2017
hIL2Rα [3] = experiment: literature reference; Stauber, PNAS 2006
hIL2Rβ [4] = experiment: literature reference; Stauber, PNAS 2006

| Substance | Kd (hIL2Rα [1]) | Kd (hIL2Rβ [2]) | Kd (hIL2Rα [3]) | Kd (hIL2Rβ [4]) |
| --- | --- | --- | --- | --- |
| NKTR-214 (1-PEG-IL2) | 190 nM | 1770 nM |  |  |
| NKTR-214 (2-PEG-IL2) | 487 nM | 3950 nM |  |  |
| NKTR-214 (IL2) | 8.6 nM | 239 nM |  |  |
| hIL2w |  |  | 10 nM | 144 nM |
